Measurements from the RNAGym collection of RNA variant scans (doi:10.7554/elife.90254).

B1: LINE1-mini (parent)
chain: GGCAGAGCUCAACACAGCGUGGCAAAGUGGCUGUGGCUAGACUGCC

Variants of: B1
Experiment: self-cleavage, relative activity (ratio to wild type); higher = more cleavage; in vitro, sequencing; the parent is a self-cleaving ribozyme

Variant	self-cleavage
GGCAGACGUCAACACAGCGUGGCAAAGUGGCUGUGGCUAGACUGCC	0.29
GGCAGACAUCAACACAGCGUGGCAAAGUGGCUGUGGCUAGACUGCC	0.32
GGCAGACUUCAACACAGCGUGGCAAAGUGGCUGUGGCUAGACUGCC	0.2
GGCAGACCUCAACACAGCGUGGCAAAGUCGCUGUGGCUAGACUGCC	0.05
GGCAGACCUCAACACAGCGUGGCAAAGUUGCUGUGGCUAGACUGCC	0.13
GGCAGACCUCAACACAGCGUGGCAAAGUAGCUGUGGCUAGACUGCC	0.13
GGCAGACCUCAACACAGCGUGGCAAAGUGGCUGUGGCUAGGCUGCC	0.04
GGCAGACCUCAACACAGCGUGGCAAAGUGGCUGUGGCUAGUCUGCC	0.21
GGCAGACCUCAACACAGCGUGGCAAAGUGGCUGUGGCUAGAGUGCC	0.1
GGCAGACCUCAACACAGCGUGGCAAAGUGGCUGUGGCUAGAUUGCC	0.09
GGCAGACCUCAACACAGCGUGGCAAAGUGGCUGUGGCUAGAAUGCC	0.08
GGCAGAUCUCAACACUGCGUGGCAAAGUGGCUGUGGCUAGACUGCC	0.12
GGCAGAUCUCAACACGGCGUGGCAAAGUGGCUGUGGCUAGACUGCC	0.16
GGCAGAUCUCAACACCGCGUGGCAAAGUGGCUGUGGCUAGACUGCC	0.09
GGCAGACCUCAACACAGCGUGGCAAAGGGGCUGUGGCUAGACUGCC	0.08
GGCAGACCUCAACACAGCGUGGCAAAGCGGCUGUGGCUAGACUGCC	0.1
GGCAGACCUCAACACAGCGUGGCAAAGAGGCUGUGGCUAGACUGCC	0.18
GGCAGAUCUCAACACAGCGUGGCAACGUGGCUGUGGCUAGACUGCC	0.24
GGCAGACCUCAAGACAGCGUGGCAAAGUGGCUGUGGCUAGACUGCC	0.18
GGCAGACCUCAAAACAGCGUGGCAAAGUGGCUGUGGCUAGACUGCC	0.11
GGCAGACCUCAAUACAGCGUGGCAAAGUGGCUGUGGCUAGACUGCC	0.14
GGCAGACCUCAACACAGCGUGGCAAAGUGGCUGAGGCUAGACUGCC	0.05
GGCAGACCUCAACACAGCGUGGCAAAGUGGCUGGGGCUAGACUGCC	0.02

Variant	self-cleavage
GGCAGACCUCAACACAGCGUGGCAAAGUGGCUGCGGCUAGACUGCC	0.06
GGCAGACCUCAACACAGCCUGGCAAAGUGGCUGUGGCUAGACUGCC	0.05
GGCAGACCUCAACACAGCAUGGCAAAGUGGCUGUGGCUAGACUGCC	0.14
GGCAGACCUCAACACAGCUUGGCAAAGUGGCUGUGGCUAGACUGCC	0.07
GGCAGAUCUCAACACAGCGUGGCACAGUGGCUGUGGCUAGACUGCC	0.06
GGCAGAUCUCAACACAGCGUGGCAUAGUGGCUGUGGCUAGACUGCC	0.1
GGCAGAUCUCAACACAGCGUGGCAGAGUGGCUGUGGCUAGACUGCC	0.1
GGCAGACCUCAACACAGCGUGGCAAAGUGCCUGUGGCUAGACUGCC	0.13
GGCAGACCUCAACACAGCGUGGCAAAGUGACUGUGGCUAGACUGCC	0.13
GGCAGACCUCAACACAGCGUGGCAAAGUGUCUGUGGCUAGACUGCC	0.1
GGCAGAUCUCGACACAGCGUGGCAAAGUGGCUGUGGCUAGACUGCC	0.03
GGCAGAUCUCUACACAGCGUGGCAAAGUGGCUGUGGCUAGACUGCC	0.04
GGCAGAUCUCCACACAGCGUGGCAAAGUGGCUGUGGCUAGACUGCC	0.02
GGCAGACCUCAACACAGCGUGGCAAAGUGGCUGUAGCUAGACUGCC	0.08
GGCAGACCUCAACACAGCGUGGCAAAGUGGCUGUCGCUAGACUGCC	0.06
GGCAGACCUCAACACAGCGUGGCAAAGUGGCUGUUGCUAGACUGCC	0.18
GGCAGACCUCAACACAGCGUGGCAAAGUGGCUGUGGCUAUACUGCC	0.26
GGCAGACCUCAACACAGCGUGGCAAAGUGGCUGUGGCUAAACUGCC	0.13
GGCAGACCUCAACACAGCGUGGCAAAGUGGCUGUGGCUACACUGCC	0.05
GGCAGACCUCAACACAGCGUGUCAAAGUGGCUGUGGCUAGACUGCC	0.12
GGCAGACCUCAACACAGCGUGCCAAAGUGGCUGUGGCUAGACUGCC	0.08
GGCAGACCUCAACACAGCGUGACAAAGUGGCUGUGGCUAGACUGCC	0.11
GGCAGACCUCAACACAGCGUGGCAAAGUGGCUGUGGCUAGACUACC	0.09

Variant	self-cleavage
GGCAGACCUCAACACAGCGUGGCAAAGUGGCUGUGGCUAGACUCCC	0.18
GGCAGACCUCAACACAGCGUGGCAAAGUGGCUGUGGCUAGACUUCC	0.15
GGCAGACCUCAACACAGAGUGGCAAAGUGGCUGUGGCUAGACUGCC	0.12
GGCAGACCUCAACACAGUGUGGCAAAGUGGCUGUGGCUAGACUGCC	0.19
GGCAGACCUCAACACAGGGUGGCAAAGUGGCUGUGGCUAGACUGCC	0.09
GGCAGACCUCAACACAGCGUUGCAAAGUGGCUGUGGCUAGACUGCC	0.08
GGCAGACCUCAACACAGCGUAGCAAAGUGGCUGUGGCUAGACUGCC	0.2
GGCAGACCUCAACACAGCGUCGCAAAGUGGCUGUGGCUAGACUGCC	0.08
GGCAGACCUCAACACAUCGUGGCAAAGUGGCUGUGGCUAGACUGCC	0.09
GGCAGACCUCAACACACCGUGGCAAAGUGGCUGUGGCUAGACUGCC	0.1
GGCAGACCUCAACACAACGUGGCAAAGUGGCUGUGGCUAGACUGCC	0.07
GGCAGACCUCAACACAGCGUGGCAAAGUGGCUGUGGCUAGACUGUC	0.16
GGCAGACCUCAACACAGCGUGGCAAAGUGGCUGUGGCUAGACUGGC	0.11
GGCAGACCUCAACACAGCGUGGCAAAGUGGCUGUGGCUAGACUGAC	0.1
GGCAGACCACAACACAGCGUGGCAAAGUGGCUGUGGCUAGACUGCC	0.09
GGCAGACCCCAACACAGCGUGGCAAAGUGGCUGUGGCUAGACUGCC	0.03
GGCAGACCGCAACACAGCGUGGCAAAGUGGCUGUGGCUAGACUGCC	0.28
GGCAGACCUCAACACAGCGGGGCAAAGUGGCUGUGGCUAGACUGCC	0.12
GGCAGACCUCAACACAGCGAGGCAAAGUGGCUGUGGCUAGACUGCC	0.06
GGCAGACCUCAACACAGCGCGGCAAAGUGGCUGUGGCUAGACUGCC	0.15
GGCAGACCUCAACACAGCGUGGCAAAGUGGAUGUGGCUAGACUGCC	0.09
GGCAGACCUCAACACAGCGUGGCAAAGUGGUUGUGGCUAGACUGCC	0.05
GGCAGACCUCAACACAGCGUGGCAAAGUGGGUGUGGCUAGACUGCC	0.06

Variant	self-cleavage
GGCAGACCUCAACACAGCGUGGCAAAAUGGCUGUGGCUAGACUGCC	0.09
GGCAGACCUCAACACAGCGUGGCAAAUUGGCUGUGGCUAGACUGCC	0.11
GGCAGACCUCAACACAGCGUGGCAAACUGGCUGUGGCUAGACUGCC	0.06
GGCAGACCUCAACACAGCGUGGGAAAGUGGCUGUGGCUAGACUGCC	0.1
GGCAGACCUCAACACAGCGUGGAAAAGUGGCUGUGGCUAGACUGCC	0.09
GGCAGACCUCAACACAGCGUGGUAAAGUGGCUGUGGCUAGACUGCC	0.1
GGCAGAUCUCAACGCAGCGUGGCAAAGUGGCUGUGGCUAGACUGCC	0.15
GGCAGAUCUCAACUCAGCGUGGCAAAGUGGCUGUGGCUAGACUGCC	0.11
GGCAGAUCUCAACCCAGCGUGGCAAAGUGGCUGUGGCUAGACUGCC	0.09
GGCAGACCUCAACACAGCGUGGCAAAGUGGCUGUGGAUAGACUGCC	0.09
GGCAGACCUCAACACAGCGUGGCAAAGUGGCUGUGGUUAGACUGCC	0.13
GGCAGACCUCAACACAGCGUGGCAAAGUGGCUGUGGGUAGACUGCC	0.03
GGCAGACCUUAACACAGCGUGGCAAAGUGGCUGUGGCUAGACUGCC	0.04
GGCAGACCUAAACACAGCGUGGCAAAGUGGCUGUGGCUAGACUGCC	0.04
GGCAGACCUGAACACAGCGUGGCAAAGUGGCUGUGGCUAGACUGCC	0.03
GGCAGACCUCAACACAGCGUGGCAAAGUGGCUGUGGCUAGACUGCA	0.18
GGCAGACCUCAACACAGCGUGGCAAAGUGGCUGUGGCUAGACUGCU	0.08
GGCAGACCUCAACACAGCGUGGCAAAGUGGCUGUGGCUAGACUGCG	0.08
GGCAGACCUCAACACAGCGUGGCAAAGUGGCUGUGCCUAGACUGCC	0.1
GGCAGACCUCAACACAGCGUGGCAAAGUGGCUGUGACUAGACUGCC	0.2
GGCAGACCUCAACACAGCGUGGCAAAGUGGCUGUGUCUAGACUGCC	0.1
GGCAGACCUCAACACAGCGUGGCAAAGUGGCUGUGGCUAGACGGCC	0.05
GGCAGACCUCAACACAGCGUGGCAAAGUGGCUGUGGCUAGACCGCC	0.33

Variant	self-cleavage
GGCAGACCUCAACACAGCGUGGCAAAGUGGCUGUGGCUAGACAGCC	0.15
GGCAGACCUCAACACAGCGUGGCAAAGUGGCCGUGGCUAGACUGCC	0.07
GGCAGACCUCAACACAGCGUGGCAAAGUGGCGGUGGCUAGACUGCC	0.05
GGCAGACCUCAACACAGCGUGGCAAAGUGGCAGUGGCUAGACUGCC	0.05
GGCAGAUCUCAACACAGCGUGGCAAAGUGGCUGUGGCUAGACUGCC	0.1
GGCAGACCUCAACACAGCGUGGCAAAGUGGCUUUGGCUAGACUGCC	0.07
GGCAGACCUCAACACAGCGUGGCAAAGUGGCUAUGGCUAGACUGCC	0.06
GGCAGACCUCAACACAGCGUGGCAAAGUGGCUCUGGCUAGACUGCC	0.08
GGCAGAUCUCAUCACAGCGUGGCAAAGUGGCUGUGGCUAGACUGCC	0.07
GGCAGAUCUCACCACAGCGUGGCAAAGUGGCUGUGGCUAGACUGCC	0.02
GGCAGAUCUCAGCACAGCGUGGCAAAGUGGCUGUGGCUAGACUGCC	0.04
GGCAGACCUCAACAUAGCGUGGCAAAGUGGCUGUGGCUAGACUGCC	0.14
GGCAGACCUCAACAAAGCGUGGCAAAGUGGCUGUGGCUAGACUGCC	0.14
GGCAGACCUCAACAGAGCGUGGCAAAGUGGCUGUGGCUAGACUGCC	0.08
GGCAGAUCUCAACACAGCGUGGCUAAGUGGCUGUGGCUAGACUGCC	0.07
GGCAGAUCUCAACACAGCGUGGCCAAGUGGCUGUGGCUAGACUGCC	0.06
GGCAGAUCUCAACACAGCGUGGCGAAGUGGCUGUGGCUAGACUGCC	0.06
GGCAGACCUCAACACAGCGUGGCAAAGUGGCUGUGGCAAGACUGCC	0.07
GGCAGACCUCAACACAGCGUGGCAAAGUGGCUGUGGCCAGACUGCC	0.1
GGCAGACCUCAACACAGCGUGGCAAAGUGGCUGUGGCGAGACUGCC	0.02
